Results from patent publication US20030229005A1 (BIOZYME, published 2003).
Primed or numbered codes have the meaning given here. The star is where a group is joined. Dabcyl′ = CN(C)c1ccc(/N=N/c2ccc(C(=O)*)cc2)cc1; fluorescein = fluorescein label

Assays:
Experiment in all cases: cell-based or functional assay
[1] = biological target: human Collagenase-3 (human, UniProt P45452 104-471, limits assumed)
[2] = biological target: T1, gelatinase B (UniProt P14780 107-707, limits assumed)
[3] = biological target: T2, human Gelatinase-A (human, UniProt P08253 110-660, limits assumed)
T2 sequence (looked up): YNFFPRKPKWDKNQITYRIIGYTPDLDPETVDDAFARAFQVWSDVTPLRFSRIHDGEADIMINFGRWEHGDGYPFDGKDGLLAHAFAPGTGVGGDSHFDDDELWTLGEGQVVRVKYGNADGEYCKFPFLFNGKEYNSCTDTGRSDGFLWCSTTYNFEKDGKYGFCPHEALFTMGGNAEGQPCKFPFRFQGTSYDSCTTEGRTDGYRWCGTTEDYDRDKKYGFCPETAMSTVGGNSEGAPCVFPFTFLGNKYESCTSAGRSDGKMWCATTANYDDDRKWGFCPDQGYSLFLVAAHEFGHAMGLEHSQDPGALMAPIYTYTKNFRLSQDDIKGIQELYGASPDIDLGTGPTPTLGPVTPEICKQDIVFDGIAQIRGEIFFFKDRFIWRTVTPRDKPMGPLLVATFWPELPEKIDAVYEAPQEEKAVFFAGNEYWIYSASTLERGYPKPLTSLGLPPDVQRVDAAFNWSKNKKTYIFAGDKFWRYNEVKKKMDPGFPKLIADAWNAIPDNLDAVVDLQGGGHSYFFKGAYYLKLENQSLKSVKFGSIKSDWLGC

[4] = biological target: T3, collagenase 1 (UniProt P03956 100-469, limits assumed)
T3 sequence (looked up): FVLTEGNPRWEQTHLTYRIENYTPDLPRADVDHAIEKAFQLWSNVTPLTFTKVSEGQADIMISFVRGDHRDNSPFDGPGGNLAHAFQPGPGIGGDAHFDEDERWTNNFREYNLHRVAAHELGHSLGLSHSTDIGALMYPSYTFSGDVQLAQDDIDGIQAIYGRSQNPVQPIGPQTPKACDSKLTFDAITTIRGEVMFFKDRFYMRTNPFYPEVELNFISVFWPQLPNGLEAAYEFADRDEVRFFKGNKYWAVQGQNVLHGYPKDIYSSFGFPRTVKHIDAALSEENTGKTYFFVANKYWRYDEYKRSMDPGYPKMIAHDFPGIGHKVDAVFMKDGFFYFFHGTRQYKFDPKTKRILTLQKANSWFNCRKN

[5] = biological target: T4, stromelysin 1 (UniProt P08254 100-477, limits assumed)
T4 sequence (P08254 100-477 limits assumed): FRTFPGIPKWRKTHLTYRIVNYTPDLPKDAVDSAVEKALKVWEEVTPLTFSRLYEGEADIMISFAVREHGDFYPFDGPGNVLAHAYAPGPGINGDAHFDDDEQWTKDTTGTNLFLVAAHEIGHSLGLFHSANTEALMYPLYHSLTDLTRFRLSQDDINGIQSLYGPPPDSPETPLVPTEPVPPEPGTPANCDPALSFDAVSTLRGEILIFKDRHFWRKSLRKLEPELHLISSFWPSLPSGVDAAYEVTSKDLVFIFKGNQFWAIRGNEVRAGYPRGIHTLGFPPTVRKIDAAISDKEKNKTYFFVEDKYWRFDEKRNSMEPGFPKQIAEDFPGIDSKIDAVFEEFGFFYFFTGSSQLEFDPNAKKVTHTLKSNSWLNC

[6] = biological target: T1, gelatinase B; remark: listed apart in the source
[7] = biological target: T2, human Gelatinase-A; remark: listed apart in the source
[8] = biological target: T3, collagenase 1; remark: listed apart in the source
[9] = biological target: T4, stromelysin 1; remark: listed apart in the source
[10] = biological target: T3, collagenase 1; remark: listed apart in the source

T1 sequence (P14780 107-707 limits assumed): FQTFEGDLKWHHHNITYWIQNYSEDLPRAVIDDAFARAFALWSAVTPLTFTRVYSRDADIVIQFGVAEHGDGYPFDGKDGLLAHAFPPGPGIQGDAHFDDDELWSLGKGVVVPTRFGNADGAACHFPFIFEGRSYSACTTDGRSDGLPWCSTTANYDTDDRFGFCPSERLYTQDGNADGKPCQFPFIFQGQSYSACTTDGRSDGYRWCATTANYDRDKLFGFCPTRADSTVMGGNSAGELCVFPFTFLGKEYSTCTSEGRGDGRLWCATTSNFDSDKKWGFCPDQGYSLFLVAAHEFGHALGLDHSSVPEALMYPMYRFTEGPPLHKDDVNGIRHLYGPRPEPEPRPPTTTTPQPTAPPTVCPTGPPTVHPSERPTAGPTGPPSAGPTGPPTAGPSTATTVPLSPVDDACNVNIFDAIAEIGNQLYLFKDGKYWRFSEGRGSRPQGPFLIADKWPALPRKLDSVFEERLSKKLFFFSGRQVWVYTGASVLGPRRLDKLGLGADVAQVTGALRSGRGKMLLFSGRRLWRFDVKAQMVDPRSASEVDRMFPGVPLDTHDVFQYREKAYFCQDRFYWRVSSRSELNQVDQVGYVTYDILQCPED

B1: Dabcyl-GPVNLHGC(Flu)-NH2 (peptide)
peptide: {Dabcyl′}-GPVNLHGC(fluorescein)-NH2
Q: B1 was tested. Which “increase in specificity with type II collagen” value [1] did it give?
A: 2.5 fold

Q: And the “Selectivity v Col-3” value [2]?
A: 0.7 unitless

Q: And the “Selectivity v Col-3, + Gel” value [2]?
A: 6 unitless

Q: What about the “Selectivity v Col-3” value [3] of the same binder?
A: 2.3 unitless

Q: What about the “Selectivity v Col-3, + Gel” value [3] of the same binder?
A: 26.5 unitless

Q: What about the “Selectivity v Col-3” value [4] of the same binder?
A: 128 unitless

Q: What about the “Selectivity v Col-3, + Gel” value [4] of the same binder?
A: 92.3 unitless

Q: And the “Selectivity v Col-3” value [5]?
A: 71.3 unitless

Q: What about the “Selectivity v Col-3, + Gel” value [5] of the same binder?
A: 72.5 unitless

Q: What about the “Improvement In Selectivity for 44 ug/ml Type II Collagen vs no Type II Collagen” value [6] of the same binder?
A: 46 fold

Q: And the “Selectivity v Col-3, + 1.6 ug/ml TIICol” value [6]?
A: 3 unitless

Q: What about the “Selectivity v Col-3, + 4.9 ug/ml TIICol” value [6] of the same binder?
A: 5.7 unitless

Q: What about the “Selectivity v Col-3, + 15 ug/ml TIICol” value [6] of the same binder?
A: 15.2 unitless

Q: And the “Selectivity v Col-3, + 44 ug/ml TIICol” value [6]?
A: 58.8 unitless

Q: And the “Selectivity v Col-3, + .18 ug/ml TIICol” value [6]?
A: 1.8 unitless

Q: And the “Selectivity v Col-3, + .55 ug/ml TIICol” value [6]?
A: 2.2 unitless

Q: What about the “Selectivity v Col-3, no TIICol” value [6] of the same binder?
A: 1.3 unitless

Q: What about the “Improvement In Selectivity for 44 ug/ml Type II Collagen vs no Type II Collagen” value [7] of the same binder?
A: 80 fold

Q: And the “Selectivity v Col-3, + 1.6 ug/ml TIICol” value [7]?
A: 9.3 unitless

Q: And the “Selectivity v Col-3, + 4.9 ug/ml TIICol” value [7]?
A: 26.3 unitless

Q: What about the “Selectivity v Col-3, + 15 ug/ml TIICol” value [7] of the same binder?
A: 75.9 unitless

Q: And the “Selectivity v Col-3, + 44 ug/ml TIICol” value [7]?
A: 465 unitless

Q: What about the “Selectivity v Col-3, + .18 ug/ml TIICol” value [7] of the same binder?
A: 7.7 unitless

Q: And the “Selectivity v Col-3, + .55 ug/ml TIICol” value [7]?
A: 9.9 unitless

Q: And the “Selectivity v Col-3, no TIICol” value [7]?
A: 5.8 unitless

Q: What about the “Improvement In Selectivity for 44 ug/ml Type II Collagen vs no Type II Collagen” value [8] of the same binder?
A: 2.5 fold

Q: What about the “Selectivity v Col-3, + 1.6 ug/ml TIICol” value [8] of the same binder?
A: 227 unitless

Q: And the “Selectivity v Col-3, + 4.9 ug/ml TIICol” value [8]?
A: 265 unitless

Q: What about the “Selectivity v Col-3, + 15 ug/ml TIICol” value [8] of the same binder?
A: 355 unitless

Q: And the “Selectivity v Col-3, + 44 ug/ml TIICol” value [8]?
A: 424 unitless

Q: And the “Selectivity v Col-3, + .18 ug/ml TIICol” value [8]?
A: 190 unitless

Q: What about the “Selectivity v Col-3, + .55 ug/ml TIICol” value [8] of the same binder?
A: 221 unitless

Q: And the “Selectivity v Col-3, no TIICol” value [8]?
A: 166 unitless

Q: And the “Improvement In Selectivity for 44 ug/ml Type II Collagen vs no Type II Collagen” value [9]?
A: 2.5 fold

Q: What about the “Selectivity v Col-3, + 1.6 ug/ml TIICol” value [9] of the same binder?
A: 389 unitless

Q: And the “Selectivity v Col-3, + 4.9 ug/ml TIICol” value [9]?
A: 335 unitless

Q: And the “Selectivity v Col-3, + 15 ug/ml TIICol” value [9]?
A: 447 unitless

Q: And the “Selectivity v Col-3, + 44 ug/ml TIICol” value [9]?
A: 476 unitless

Q: What about the “Selectivity v Col-3, + .18 ug/ml TIICol” value [9] of the same binder?
A: 263 unitless

Q: What about the “Selectivity v Col-3, + .55 ug/ml TIICol” value [9] of the same binder?
A: 281 unitless

Q: What about the “Selectivity v Col-3, no TIICol” value [9] of the same binder?
A: 192 unitless

B2: Dabcyl-GPLGMRGC(Fluorescein)-NH2 (peptide)
peptide: {Dabcyl′}-GPLGMRGC(fluorescein)-NH2
Q: Which “selectivity towards Col-3” value [10] does the source give for B2 here?
A: 215 fold

Q: And the “Selectivity v Col-3, + Gel” value [2]?
A: 6.3 unitless

Q: What about the “Selectivity v Col-3, + Gel” value [3] of the same binder?
A: 25.8 unitless

Q: And the “Selectivity v Col-3, + Gel” value [4]?
A: 78.4 unitless

Q: What about the “Selectivity v Col-3, + Gel” value [5] of the same binder?
A: 769 unitless
